# Measured values from patent publication US7378498B2, “Protein encoded by a nucleic acid” (The Johns Hopkins University School of Medicine, priority 1998, dated 2008).
# System: GST-mGluR5 or GST-Shank3 (residues 1143-1408)
# Assay: GST pull-down binding of Homer EVH1 point mutants
# Set-up: key: wild-type (+); (−) indicates substantially reduced binding relative to wild-type (+)
# Settings: GST pull-down of myc-tagged mutants from HEK293 lysates, relative to wild-type
row,Molecule,Binding
1,"F7R: point mutant of the Homer EVH1 domain (protein, left off: small tags and cut ends, point mutant of the Homer EVH1 domain) MGEQPIRSTRAHVFQIDPNTKKNWVPTSKHAVTVSYFYDSTRNVYRIISLDGSKAIINSTITPNMTFTKTSQKFGQWADSRANTVYGLGFSSEHHLSKFAEKFQEFKEAARLAKEKSQEK",+
2,"H95A: point mutant of the Homer EVH1 domain (protein, left off: small tags and cut ends, point mutant of the Homer EVH1 domain) MGEQPIFSTRAHVFQIDPNTKKNWVPTSKHAVTVSYFYDSTRNVYRIISLDGSKAIINSTITPNMTFTKTSQKFGQWADSRANTVYGLGFSSEHALSKFAEKFQEFKEAARLAKEKSQEK",+
3,"E93K: point mutant of the Homer EVH1 domain (protein, left off: small tags and cut ends, point mutant of the Homer EVH1 domain) MGEQPIFSTRAHVFQIDPNTKKNWVPTSKHAVTVSYFYDSTRNVYRIISLDGSKAIINSTITPNMTFTKTSQKFGQWADSRANTVYGLGFSSKHHLSKFAEKFQEFKEAARLAKEKSQEK",+
4,"I48A: point mutant of the Homer EVH1 domain (protein, left off: small tags and cut ends, point mutant of the Homer EVH1 domain) MGEQPIFSTRAHVFQIDPNTKKNWVPTSKHAVTVSYFYDSTRNVYRIASLDGSKAIINSTITPNMTFTKTSQKFGQWADSRANTVYGLGFSSEHHLSKFAEKFQEFKEAARLAKEKSQEK",+
5,"D39A: point mutant of the Homer EVH1 domain (protein, left off: small tags and cut ends, point mutant of the Homer EVH1 domain) MGEQPIFSTRAHVFQIDPNTKKNWVPTSKHAVTVSYFYASTRNVYRIISLDGSKAIINSTITPNMTFTKTSQKFGQWADSRANTVYGLGFSSEHHLSKFAEKFQEFKEAARLAKEKSQEK",−
6,"S28A: point mutant of the Homer EVH1 domain (protein, left off: small tags and cut ends, point mutant of the Homer EVH1 domain) MGEQPIFSTRAHVFQIDPNTKKNWVPTAKHAVTVSYFYDSTRNVYRIISLDGSKAIINSTITPNMTFTKTSQKFGQWADSRANTVYGLGFSSEHHLSKFAEKFQEFKEAARLAKEKSQEK",−
7,"V34M: point mutant of the Homer EVH1 domain (protein, left off: small tags and cut ends, point mutant of the Homer EVH1 domain) MGEQPIFSTRAHVFQIDPNTKKNWVPTSKHAVTMSYFYDSTRNVYRIISLDGSKAIINSTITPNMTFTKTSQKFGQWADSRANTVYGLGFSSEHHLSKFAEKFQEFKEAARLAKEKSQEK",+
8,"F90S: point mutant of the Homer EVH1 domain (protein, left off: small tags and cut ends, point mutant of the Homer EVH1 domain) MGEQPIFSTRAHVFQIDPNTKKNWVPTSKHAVTVSYFYDSTRNVYRIISLDGSKAIINSTITPNMTFTKTSQKFGQWADSRANTVYGLGSSSEHHLSKFAEKFQEFKEAARLAKEKSQEK",+
9,"Q72A: point mutant of the Homer EVH1 domain (protein, left off: small tags and cut ends, point mutant of the Homer EVH1 domain) MGEQPIFSTRAHVFQIDPNTKKNWVPTSKHAVTVSYFYDSTRNVYRIISLDGSKAIINSTITPNMTFTKTSAKFGQWADSRANTVYGLGFSSEHHLSKFAEKFQEFKEAARLAKEKSQEK",+
10,"R46C: point mutant of the Homer EVH1 domain (protein, left off: small tags and cut ends, point mutant of the Homer EVH1 domain) MGEQPIFSTRAHVFQIDPNTKKNWVPTSKHAVTVSYFYDSTRNVYCIISLDGSKAIINSTITPNMTFTKTSQKFGQWADSRANTVYGLGFSSEHHLSKFAEKFQEFKEAARLAKEKSQEK",+
11,"L96S: point mutant of the Homer EVH1 domain (protein, left off: small tags and cut ends, point mutant of the Homer EVH1 domain) MGEQPIFSTRAHVFQIDPNTKKNWVPTSKHAVTVSYFYDSTRNVYRIISLDGSKAIINSTITPNMTFTKTSQKFGQWADSRANTVYGLGFSSEHHSSKFAEKFQEFKEAARLAKEKSQEK",+
12,"R42E: point mutant of the Homer EVH1 domain (protein, left off: small tags and cut ends, point mutant of the Homer EVH1 domain) MGEQPIFSTRAHVFQIDPNTKKNWVPTSKHAVTVSYFYDSTENVYRIISLDGSKAIINSTITPNMTFTKTSQKFGQWADSRANTVYGLGFSSEHHLSKFAEKFQEFKEAARLAKEKSQEK",−
13,"R42A: point mutant of the Homer EVH1 domain (protein, left off: small tags and cut ends, point mutant of the Homer EVH1 domain) MGEQPIFSTRAHVFQIDPNTKKNWVPTSKHAVTVSYFYDSTANVYRIISLDGSKAIINSTITPNMTFTKTSQKFGQWADSRANTVYGLGFSSEHHLSKFAEKFQEFKEAARLAKEKSQEK",+
14,"N23A: point mutant of the Homer EVH1 domain (protein, left off: small tags and cut ends, point mutant of the Homer EVH1 domain) MGEQPIFSTRAHVFQIDPNTKKAWVPTSKHAVTVSYFYDSTRNVYRIISLDGSKAIINSTITPNMTFTKTSQKFGQWADSRANTVYGLGFSSEHHLSKFAEKFQEFKEAARLAKEKSQEK",+
15,"N64G: point mutant of the Homer EVH1 domain (protein, left off: small tags and cut ends, point mutant of the Homer EVH1 domain) MGEQPIFSTRAHVFQIDPNTKKNWVPTSKHAVTVSYFYDSTRNVYRIISLDGSKAIINSTITPGMTFTKTSQKFGQWADSRANTVYGLGFSSEHHLSKFAEKFQEFKEAARLAKEKSQEK",+

# Next, values leading:
row,Binding,Molecule
1,+,"F74A: point mutant of the Homer EVH1 domain (protein, left off: small tags and cut ends, point mutant of the Homer EVH1 domain) MGEQPIFSTRAHVFQIDPNTKKNWVPTSKHAVTVSYFYDSTRNVYRIISLDGSKAIINSTITPNMTFTKTSQKAGQWADSRANTVYGLGFSSEHHLSKFAEKFQEFKEAARLAKEKSQEK"
2,+,"S35V: point mutant of the Homer EVH1 domain (protein, left off: small tags and cut ends, point mutant of the Homer EVH1 domain) MGEQPIFSTRAHVFQIDPNTKKNWVPTSKHAVTVVYFYDSTRNVYRIISLDGSKAIINSTITPNMTFTKTSQKFGQWADSRANTVYGLGFSSEHHLSKFAEKFQEFKEAARLAKEKSQEK"
3,+,"N58A: point mutant of the Homer EVH1 domain (protein, left off: small tags and cut ends, point mutant of the Homer EVH1 domain) MGEQPIFSTRAHVFQIDPNTKKNWVPTSKHAVTVSYFYDSTRNVYRIISLDGSKAIIASTITPNMTFTKTSQKFGQWADSRANTVYGLGFSSEHHLSKFAEKFQEFKEAARLAKEKSQEK"
4,−,"F67S: point mutant of the Homer EVH1 domain (protein, left off: small tags and cut ends, point mutant of the Homer EVH1 domain) MGEQPIFSTRAHVFQIDPNTKKNWVPTSKHAVTVSYFYDSTRNVYRIISLDGSKAIINSTITPNMTSTKTSQKFGQWADSRANTVYGLGFSSEHHLSKFAEKFQEFKEAARLAKEKSQEK"
5,−,"R46A: point mutant of the Homer EVH1 domain (protein, left off: small tags and cut ends, point mutant of the Homer EVH1 domain) MGEQPIFSTRAHVFQIDPNTKKNWVPTSKHAVTVSYFYDSTRNVYAIISLDGSKAIINSTITPNMTFTKTSQKFGQWADSRANTVYGLGFSSEHHLSKFAEKFQEFKEAARLAKEKSQEK"
6,+,"F74L: point mutant of the Homer EVH1 domain (protein, left off: small tags and cut ends, point mutant of the Homer EVH1 domain) MGEQPIFSTRAHVFQIDPNTKKNWVPTSKHAVTVSYFYDSTRNVYRIISLDGSKAIINSTITPNMTFTKTSQKLGQWADSRANTVYGLGFSSEHHLSKFAEKFQEFKEAARLAKEKSQEK"
7,+,"K69A: point mutant of the Homer EVH1 domain (protein, left off: small tags and cut ends, point mutant of the Homer EVH1 domain) MGEQPIFSTRAHVFQIDPNTKKNWVPTSKHAVTVSYFYDSTRNVYRIISLDGSKAIINSTITPNMTFTATSQKFGQWADSRANTVYGLGFSSEHHLSKFAEKFQEFKEAARLAKEKSQEK"
8,−,"S8L: point mutant of the Homer EVH1 domain (protein, left off: small tags and cut ends, point mutant of the Homer EVH1 domain) MGEQPIFLTRAHVFQIDPNTKKNWVPTSKHAVTVSYFYDSTRNVYRIISLDGSKAIINSTITPNMTFTKTSQKFGQWADSRANTVYGLGFSSEHHLSKFAEKFQEFKEAARLAKEKSQEK"
